B1: EHEE_rd2_0191 (parent)
chain: TTEYTFTDDEEARRAIEELKKRGLTFRYEKHGTTWRVRVD

We go through 62 variants from the MegaScale stability set (Tsuboyama et al. 2023).

Variants of B1 are the subject of the series. Nature of the series: folding stability dG (cDNA display proteolysis); higher = more stable. Conditions: PBS, room temperature.
On to TTEYTFTDDEEARRAIEELKKRLLTFRYEKHGTTWRVRVD [G23L], for which the “folding stability dG” value came out at 0.596 kcal/mol.
For TTEYTFTDDEEARRAIEELKKRKLTFRYEKHGTTWRVRVD [G23K], the “folding stability dG” value was 1.21 kcal/mol.
In the case of TTEYTFTDDEEARRAIEELKKRYLTFRYEKHGTTWRVRVD [G23Y], the “folding stability dG” value was 0.547 kcal/mol.
As for TTEYTFTDDEEARRAIEELKKRRLTFRYEKHGTTWRVRVD [G23R], the figure is 1.18 kcal/mol; as for TTEYTFTDDEEARRAIEELKKRHLTFRYEKHGTTWRVRVD [G23H], 1.26 kcal/mol; as for TTEYTFTDDEEARRAIEELKKRFLTFRYEKHGTTWRVRVD [G23F], 0.765 kcal/mol.
The same measure for TTEYTFTDDEEARRAIEELKKRSLTFRYEKHGTTWRVRVD [G23S]: 0.756 kcal/mol; for TTEYTFTDDEEARRAIEELKKRWLTFRYEKHGTTWRVRVD [G23W]: 0.206 kcal/mol; for TTEYTFTDDEEARRAIEELKKRQLTFRYEKHGTTWRVRVD [G23Q]: 0.972 kcal/mol.
Regarding TTEYTFTDDEEARRAIEELKKRMLTFRYEKHGTTWRVRVD [G23M], the “folding stability dG” value turned out to be 0.906 kcal/mol.
TTEYTFTDDEEARRAIEELKKRTLTFRYEKHGTTWRVRVD [G23T]: the “folding stability dG” value was -0.314 kcal/mol.
The same measure for TTEYTFTDDEEARRAIEELKKRDLTFRYEKHGTTWRVRVD [G23D]: 0.517 kcal/mol; for TTEYTFTDDEEARRAIEELKKRNLTFRYEKHGTTWRVRVD [G23N]: 1.4 kcal/mol; for TTEYTFTDDEEARRAIEELKKRELTFRYEKHGTTWRVRVD [G23E]: 0.428 kcal/mol.
Take TTEYTFTDDEEARRAIEELKKRCLTFRYEKHGTTWRVRVD [G23C]: the “folding stability dG” value was determined as 1.31 kcal/mol.
As for TTEYTFTDDEEARRAIEELKKRALTFRYEKHGTTWRVRVD [G23A], the figure is 0.759 kcal/mol; as for TTEYTFTDDEEARRAIEELKKYGLTFRYEKHGTTWRVRVD [R22Y], 1.55 kcal/mol.
As for TTEYTFTDDEEARRAIEELKKHGLTFRYEKHGTTWRVRVD [R22H], the figure is 1.64 kcal/mol; as for TTEYTFTDDEEARRAIEELKKNGLTFRYEKHGTTWRVRVD [R22N], 1.69 kcal/mol.
The same measure for TTEYTFTDDEEARRAIEELKKTGLTFRYEKHGTTWRVRVD [R22T]: 1.56 kcal/mol; for TTEYTFTDDEEARRAIEELKKIGLTFRYEKHGTTWRVRVD [R22I]: 1.52 kcal/mol.
Regarding TTEYTFTDDEEARRAIEELKKDGLTFRYEKHGTTWRVRVD [R22D], the “folding stability dG” value was determined as 1.03 kcal/mol.
The same measure for TTEYTFTDDEEARRAIEELKKSGLTFRYEKHGTTWRVRVD [R22S]: 1.93 kcal/mol; for TTEYTFTDDEEARRAIEELKKLGLTFRYEKHGTTWRVRVD [R22L]: 2.25 kcal/mol; for TTEYTFTDDEEARRAIEELKKWGLTFRYEKHGTTWRVRVD [R22W]: 1.78 kcal/mol.
The same measure for TTEYTFTDDEEARRAIEELKKVGLTFRYEKHGTTWRVRVD [R22V]: 1.23 kcal/mol; for TTEYTFTDDEEARRAIEELKKAGLTFRYEKHGTTWRVRVD [R22A]: 2.1 kcal/mol.
The same measure for TTEYTFTDDEEARRAIEELKKMGLTFRYEKHGTTWRVRVD [R22M]: 2.19 kcal/mol.
Take TTEYTFTDDEEARRAIEELKKFGLTFRYEKHGTTWRVRVD [R22F]: the “folding stability dG” value came to 1.55 kcal/mol.
For the variant TTEYTFTDDEEARRAIEELKKQGLTFRYEKHGTTWRVRVD [R22Q], the “folding stability dG” value amounted to 2.1 kcal/mol.
Turning to TTEYTFTDDEEARRAIEELKKEGLTFRYEKHGTTWRVRVD [R22E], the “folding stability dG” value is 1.35 kcal/mol.
As for TTEYTFTDDEEARRAIEELKKGGLTFRYEKHGTTWRVRVD [R22G], the figure is 1.28 kcal/mol.
The same measure for TTEYTFTDDEEARRAIEELKKKGLTFRYEKHGTTWRVRVD [R22K]: 2.02 kcal/mol; for TTEYTFTDDEEARRAIEDLKKRGLTFRYEKHGTTWRVRVD [E18D]: 2.03 kcal/mol; for TTEYTFTDDEEARRAIEWLKKRGLTFRYEKHGTTWRVRVD [E18W]: 2.69 kcal/mol.
The same measure for TTEYTFTDDEEARRAIEALKKRGLTFRYEKHGTTWRVRVD [E18A]: 2.01 kcal/mol; for TTEYTFTDDEEARRAIEQLKKRGLTFRYEKHGTTWRVRVD [E18Q]: 1.97 kcal/mol; for TTEYTFTDDEEARRAIENLKKRGLTFRYEKHGTTWRVRVD [E18N]: 1.9 kcal/mol.
Consider TTEYTFTDDEEARRAIEKLKKRGLTFRYEKHGTTWRVRVD [E18K], for which the “folding stability dG” value came out at 1.74 kcal/mol.
As to TTEYTFTDDEEARRAIEILKKRGLTFRYEKHGTTWRVRVD [E18I], the “folding stability dG” value worked out at 2.15 kcal/mol.
As for TTEYTFTDDEEARRAIETLKKRGLTFRYEKHGTTWRVRVD [E18T], the figure is 1.84 kcal/mol; as for TTEYTFTDDEEARRAIERLKKRGLTFRYEKHGTTWRVRVD [E18R], 1.7 kcal/mol.
As for TTEYTFTDDEEARRAIEYLKKRGLTFRYEKHGTTWRVRVD [E18Y], the figure is 2.29 kcal/mol; as for TTEYTFTDDEEARRAIEHLKKRGLTFRYEKHGTTWRVRVD [E18H], 1.86 kcal/mol.
With TTEYTFTDDEEARRAIEGLKKRGLTFRYEKHGTTWRVRVD [E18G], the “folding stability dG” value worked out at 1.74 kcal/mol.
Consider TTEYTFTDDEEARRAIELLKKRGLTFRYEKHGTTWRVRVD [E18L], for which the “folding stability dG” value was found to be 2.08 kcal/mol.
The same measure for TTEYTFTDDEEARRAIEVLKKRGLTFRYEKHGTTWRVRVD [E18V]: 1.96 kcal/mol; for TTEYTFTDDEEARRAIEFLKKRGLTFRYEKHGTTWRVRVD [E18F]: 2.12 kcal/mol; for TTEYTFTDDEEARRAIESLKKRGLTFRYEKHGTTWRVRVD [E18S]: 1.99 kcal/mol.
As for TTEYTFTDDEEARRAIEMLKKRGLTFRYEKHGTTWRVRVD [E18M], the figure is 2.11 kcal/mol.
On to TTEYTFTDDEEARRAIEELYKRGLTFRYEKHGTTWRVRVD [K20Y], for which the “folding stability dG” value was found to be 1.99 kcal/mol.
The same measure for TTEYTFTDDEEARRAIEELDKRGLTFRYEKHGTTWRVRVD [K20D]: 1.15 kcal/mol; for TTEYTFTDDEEARRAIEELEKRGLTFRYEKHGTTWRVRVD [K20E]: 1.86 kcal/mol.
Regarding TTEYTFTDDEEARRAIEELIKRGLTFRYEKHGTTWRVRVD [K20I], the “folding stability dG” value was found to be 2.42 kcal/mol.
As for TTEYTFTDDEEARRAIEELSKRGLTFRYEKHGTTWRVRVD [K20S], the figure is 1.81 kcal/mol; as for TTEYTFTDDEEARRAIEELMKRGLTFRYEKHGTTWRVRVD [K20M], 2.15 kcal/mol.
The same measure for TTEYTFTDDEEARRAIEELGKRGLTFRYEKHGTTWRVRVD [K20G]: 1.41 kcal/mol; for TTEYTFTDDEEARRAIEELVKRGLTFRYEKHGTTWRVRVD [K20V]: 2.07 kcal/mol.
With TTEYTFTDDEEARRAIEELRKRGLTFRYEKHGTTWRVRVD [K20R], the “folding stability dG” value turned out to be 2.27 kcal/mol.
As for TTEYTFTDDEEARRAIEELCKRGLTFRYEKHGTTWRVRVD [K20C], the figure is 2.56 kcal/mol; as for TTEYTFTDDEEARRAIEELFKRGLTFRYEKHGTTWRVRVD [K20F], 2.02 kcal/mol.
As for TTEYTFTDDEEARRAIEELAKRGLTFRYEKHGTTWRVRVD [K20A], the figure is 1.81 kcal/mol.
